From PMC2120824 (The Journal of Cell Biology, 1996)

T1: Drosophila septin polypeptide Pnut (Drosophila (endogenous in embryos), UniProt P40797 1-539)
T1 sequence (looked up): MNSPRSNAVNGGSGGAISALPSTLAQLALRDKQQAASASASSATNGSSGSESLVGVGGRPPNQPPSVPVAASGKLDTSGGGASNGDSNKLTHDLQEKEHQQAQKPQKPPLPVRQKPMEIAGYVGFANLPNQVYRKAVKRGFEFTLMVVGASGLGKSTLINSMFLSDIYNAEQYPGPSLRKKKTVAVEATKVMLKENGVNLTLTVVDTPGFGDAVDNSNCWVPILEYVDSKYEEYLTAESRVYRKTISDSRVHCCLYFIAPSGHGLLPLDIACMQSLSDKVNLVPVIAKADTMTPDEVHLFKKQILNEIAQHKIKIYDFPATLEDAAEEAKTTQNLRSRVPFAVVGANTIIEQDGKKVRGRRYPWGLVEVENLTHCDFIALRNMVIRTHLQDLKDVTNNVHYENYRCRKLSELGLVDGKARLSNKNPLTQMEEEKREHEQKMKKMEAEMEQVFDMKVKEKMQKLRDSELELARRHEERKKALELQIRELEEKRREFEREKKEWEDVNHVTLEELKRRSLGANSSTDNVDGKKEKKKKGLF


Target: T1, Drosophila septin polypeptide Pnut
Assay: co-IP

stoichiometry N | Binder
~1 | Drosophila septin polypeptide Sep1 (natural protein, Drosophila (endogenous in embryos), UniProt P42207 1-361, looked up) MADTKGFSSIETPGYVGFANLPNQVHRKSVKKGFEFTLMVVGESGLGKSTLVNSLFLTDLYPERIIPDAIEKQKQTVKLEASTVEIEERGVKLRLTVVDTPGFGDAIDNSNSFGAILEYIDEQYERFLRDESGLNRRNIVDNRIHCCFYFISPFGHGLKPLDVEFMKKLHSKVNIVPVIAKADCLTKKEILRLKCRIMQEIESHGIKIYPLPDCDSDEDEDYKEQVKQLKEAVPFAVCGANTLLEVKGKKVRGRLYPWGVVEVENPDHCDFIKLRTMLITHMQDLQEVTQEVHYENYRSDRLAKGIKGKENGVKAERDSSSQVVSNSVLGEKDRILQEKEAELRRMQEMLAQMQARMQAQQ
~1 | Drosophila septin polypeptide Sep2 (natural protein, Drosophila (endogenous in embryos), UniProt P54359 1-419, looked up) MSVEVDFVDKKEVHLRTLKQSGHVGFDSLPDQLVNKSVQNGFVFNVMCIGETGLGKSTLMDTLFNTSFESTPSPHTLPSVKLKAHTYELQESNVRLKLTICDTVGYGDQINKDDSFKAVVDYIDAQFENYLQEELKIKRSLVTCHDSRIHICLYFICPTGHGLKSLDLVCMKKLDSKVNIIPVIAKADTISKVELQRFKAKIIQELNANGVHIYQFPTDDETVAETNTSMNSHIPFAVVGSTEFIKVGNKLIRARQYPWGTVQVENETHCDFVKLREMLIRTNMEDMREKTHTRHYELYRQKRLEQMGFSDVDSDNKPISFQQTFEAKRSNHLAELQSKEEEVRQMFVQRVKEKEAELKESEKDLHAKFEKLKRDHAEEKRKLEESRKALEEDYLDFQRRKQQLATAHHTLTLGKSKKK
